{
  "source": "patent US20180030151A1",
  "about": "(MOGAM INSTITUTE FOR BIOMEDICAL RESEARCH, published 2018)",
  "binders": {"B1": {"name": "clone 1238 (antibody, V domains shown)", "VH": "EVQLVESGGGLVKPGGSLRLSCAASGFTFSSYAMNWVRQAPGKGLEWVSTITTGGSYTYYADSVEGRFTISRDNAKNSLYLQMNSLRAEDTAVYYCARQDGHFLMDYWGQGTLVTVSS", "VL": "DVVMTQTPLSLPVTLGQPASISCKSSQSLLDVDGKTYLNWLQQRPGQSPKRLIYLVSKLDSGVPDRFTGSGSGTDFTLKISRVEAEDVGVYYCWQGTHFPFTFGQGTKVEIKR"}, "B2": {"name": "clone 3007 (antibody, V domains shown)", "VH": "B1 VH with S30T, T53L, E65Q, H102N", "VL": "B1 VL with V32L"}, "B3": {"name": "clone 3016 (antibody, V domains shown)", "VH": "B1 VH with Y57H, H102N", "VL": "B1 VL with V32S, F99L"}, "B4": {"name": "clone 3115 (antibody, V domains shown)", "VH": "B1 VH with S49G, Y57H, E65D, H102N", "VL": "B1 VL"}, "B5": {"name": "clone 3120 (antibody, V domains shown)", "VH": "B1 VH with H102Y", "VL": "B1 VL with V32I"}, "B6": {"name": "clone 3131 (antibody, V domains shown)", "VH": "B1 VH with N35S, E65Q, H102Q", "VL": "B1 VL with V32I"}, "B7": {"name": "clone 4141 (antibody, V domains shown)", "VH": "B1 VH with S49G, Y57H, H102Y", "VL": "B1 VL"}, "B8": {"name": "clone 4206 (antibody, V domains shown)", "VH": "B1 VH with Y57H, N84D, H102N", "VL": "B1 VL with F99L"}, "B9": {"name": "clone 4208 (antibody, V domains shown)", "VH": "B1 VH with P14S, N35S, S49G, E65Q, H102N", "VL": "B1 VL with V32T"}, "B10": {"name": "clone 4287 (antibody, V domains shown)", "VH": "EVQLVESGGGLVKPGGSLRLSCAASGFTFSKYAMNWFRQAPGKGLEWVSTITTGGSYTYYADSVEGRFTISRDNAKNSLYLQMNSLRAEDTAVYYCARQHPYGNFLMDYWGQGTLVTVSS", "VL": "B1 VL with V32I"}},
  "assay_in_all_cases": "cell-based or functional assay",
  "key": {"[1]": {"molecular_target": "T1, recombinant human TFPI (tissue factor pathway inhibitor) (human, UniProt P10646 29-304)"}, "[2]": {"molecular_target": "T1, recombinant human TFPI (tissue factor …)", "remark": "listed apart in the source"}, "[3]": {"molecular_target": "T1, recombinant human TFPI (tissue factor …)", "remark": "listed apart in the source"}, "[4]": {"molecular_target": "T1, recombinant human TFPI (tissue factor …)", "remark": "listed apart in the source"}},
  "note": "Changes are numbered by the printed parent chain. Read-outs that look alike come from different tables or passages of the source.",
  "data": [
    {"binder": "B1", "values": [
      {"measurement": "FXa assay % of FXa alone, 2.5 nM Ab, 10 nM TFPI", "setting": "[1]", "value": 4.5, "unit": "%"},
      {"measurement": "FXa assay % of FXa alone, 5 nM Ab, 10 nM TFPI", "setting": "[1]", "value": 13.2, "unit": "%"},
      {"measurement": "FXa assay % of FXa alone, 10 nM Ab, 10 nM TFPI", "setting": "[1]", "value": 5.6, "unit": "%"},
      {"measurement": "FXa assay % of FXa alone, 20 nM Ab, 10 nM TFPI", "setting": "[1]", "value": 63.2, "unit": "%"},
      {"measurement": "FXa assay OD, 2.5 nM Ab, 10 nM TFPI", "setting": "[1]", "value": 0.039},
      {"measurement": "FXa assay OD, 5 nM Ab, 10 nM TFPI", "setting": "[1]", "value": 0.115},
      {"measurement": "FXa assay OD, 10 nM Ab, 10 nM TFPI", "setting": "[1]", "value": 0.0485},
      {"measurement": "FXa assay OD, 20 nM Ab, 10 nM TFPI", "setting": "[1]", "value": 0.55}
    ]},
    {"binder": "B2", "values": [
      {"measurement": "FXa assay % of FXa alone, 2.5 nM Ab, 10 nM TFPI", "setting": "[2]", "value": 3.5, "unit": "%"},
      {"measurement": "FXa assay % of FXa alone, 5 nM Ab, 10 nM TFPI", "setting": "[2]", "value": 3.6, "unit": "%"},
      {"measurement": "FXa assay % of FXa alone, 10 nM Ab, 10 nM TFPI", "setting": "[2]", "value": 3.6, "unit": "%"},
      {"measurement": "FXa assay % of FXa alone, 20 nM Ab, 10 nM TFPI", "setting": "[2]", "value": 3, "unit": "%"}
    ]},
    {"binder": "B3", "values": [
      {"measurement": "FXa assay % of FXa alone, 2.5 nM Ab, 10 nM TFPI", "setting": "[2]", "value": 3.7, "unit": "%"},
      {"measurement": "FXa assay % of FXa alone, 5 nM Ab, 10 nM TFPI", "setting": "[2]", "value": 4.8, "unit": "%"},
      {"measurement": "FXa assay % of FXa alone, 10 nM Ab, 10 nM TFPI", "setting": "[2]", "value": 6.3, "unit": "%"},
      {"measurement": "FXa assay % of FXa alone, 20 nM Ab, 10 nM TFPI", "setting": "[2]", "value": 14.2, "unit": "%"},
      {"measurement": "FXa assay OD, 20 nM Ab, 10 nM TFPI", "setting": "[2]", "value": 0.102}
    ]},
    {"binder": "B4", "values": [
      {"measurement": "FXa assay % of FXa alone, 2.5 nM Ab, 10 nM TFPI", "setting": "[3]", "value": 6.2, "unit": "%"},
      {"measurement": "FXa assay % of FXa alone, 5 nM Ab, 10 nM TFPI", "setting": "[3]", "value": 8.1, "unit": "%"},
      {"measurement": "FXa assay % of FXa alone, 10 nM Ab, 10 nM TFPI", "setting": "[3]", "value": 16.2, "unit": "%"},
      {"measurement": "FXa assay % of FXa alone, 20 nM Ab, 10 nM TFPI", "setting": "[3]", "value": 69.1, "unit": "%"},
      {"measurement": "FXa assay OD, 10 nM Ab, 10 nM TFPI", "setting": "[3]", "value": 0.125},
      {"measurement": "FXa assay OD, 20 nM Ab, 10 nM TFPI", "setting": "[3]", "value": 0.532}
    ]},
    {"binder": "B5", "values": [
      {"measurement": "FXa assay % of FXa alone, 2.5 nM Ab, 10 nM TFPI", "setting": "[3]", "value": 6.4, "unit": "%"},
      {"measurement": "FXa assay % of FXa alone, 5 nM Ab, 10 nM TFPI", "setting": "[3]", "value": 9.1, "unit": "%"},
      {"measurement": "FXa assay % of FXa alone, 10 nM Ab, 10 nM TFPI", "setting": "[3]", "value": 33.4, "unit": "%"},
      {"measurement": "FXa assay % of FXa alone, 20 nM Ab, 10 nM TFPI", "setting": "[3]", "value": 81.3, "unit": "%"},
      {"measurement": "FXa assay OD, 2.5 nM Ab, 10 nM TFPI", "setting": "[3]", "value": 0.0495},
      {"measurement": "FXa assay OD, 5 nM Ab, 10 nM TFPI", "setting": "[3]", "value": 0.07},
      {"measurement": "FXa assay OD, 10 nM Ab, 10 nM TFPI", "setting": "[3]", "value": 0.258},
      {"measurement": "FXa assay OD, 20 nM Ab, 10 nM TFPI", "setting": "[3]", "value": 0.626}
    ]},
    {"binder": "B6", "values": [
      {"measurement": "FXa assay % of FXa alone, 2.5 nM Ab, 10 nM TFPI", "setting": "[3]", "value": 6.6, "unit": "%"},
      {"measurement": "FXa assay % of FXa alone, 5 nM Ab, 10 nM TFPI", "setting": "[3]", "value": 7.7, "unit": "%"},
      {"measurement": "FXa assay % of FXa alone, 10 nM Ab, 10 nM TFPI", "setting": "[3]", "value": 14.9, "unit": "%"},
      {"measurement": "FXa assay % of FXa alone, 20 nM Ab, 10 nM TFPI", "setting": "[3]", "value": 61.6, "unit": "%"},
      {"measurement": "FXa assay OD, 10 nM Ab, 10 nM TFPI", "setting": "[3]", "value": 0.115},
      {"measurement": "FXa assay OD, 20 nM Ab, 10 nM TFPI", "setting": "[3]", "value": 0.474}
    ]},
    {"binder": "B7", "values": [
      {"measurement": "FXa assay % of FXa alone, 2.5 nM Ab, 10 nM TFPI", "setting": "[3]", "value": 6.4, "unit": "%"},
      {"measurement": "FXa assay % of FXa alone, 5 nM Ab, 10 nM TFPI", "setting": "[3]", "value": 8.4, "unit": "%"},
      {"measurement": "FXa assay % of FXa alone, 10 nM Ab, 10 nM TFPI", "setting": "[3]", "value": 16.7, "unit": "%"},
      {"measurement": "FXa assay % of FXa alone, 20 nM Ab, 10 nM TFPI", "setting": "[3]", "value": 80.5, "unit": "%"},
      {"measurement": "FXa assay OD, 2.5 nM Ab, 10 nM TFPI", "setting": "[3]", "value": 0.0495},
      {"measurement": "FXa assay OD, 10 nM Ab, 10 nM TFPI", "setting": "[3]", "value": 0.129},
      {"measurement": "FXa assay OD, 20 nM Ab, 10 nM TFPI", "setting": "[3]", "value": 0.62}
    ]},
    {"binder": "B8", "values": [
      {"measurement": "FXa assay % of FXa alone, 2.5 nM Ab, 10 nM TFPI", "setting": "[4]", "value": 4.7, "unit": "%"},
      {"measurement": "FXa assay % of FXa alone, 5 nM Ab, 10 nM TFPI", "setting": "[4]", "value": 6.1, "unit": "%"},
      {"measurement": "FXa assay % of FXa alone, 10 nM Ab, 10 nM TFPI", "setting": "[4]", "value": 7.1, "unit": "%"},
      {"measurement": "FXa assay % of FXa alone, 20 nM Ab, 10 nM TFPI", "setting": "[4]", "value": 38.6, "unit": "%"},
      {"measurement": "FXa assay OD, 2.5 nM Ab, 10 nM TFPI", "setting": "[4]", "value": 0.038},
      {"measurement": "FXa assay OD, 20 nM Ab, 10 nM TFPI", "setting": "[4]", "value": 0.314}
    ]},
    {"binder": "B9", "values": [
      {"measurement": "FXa assay % of FXa alone, 2.5 nM Ab, 10 nM TFPI", "setting": "[4]", "value": 5, "unit": "%"},
      {"measurement": "FXa assay % of FXa alone, 5 nM Ab, 10 nM TFPI", "setting": "[4]", "value": 6.1, "unit": "%"},
      {"measurement": "FXa assay % of FXa alone, 10 nM Ab, 10 nM TFPI", "setting": "[4]", "value": 12.2, "unit": "%"},
      {"measurement": "FXa assay % of FXa alone, 20 nM Ab, 10 nM TFPI", "setting": "[4]", "value": 53.1, "unit": "%"},
      {"measurement": "FXa assay OD, 2.5 nM Ab, 10 nM TFPI", "setting": "[4]", "value": 0.041},
      {"measurement": "FXa assay OD, 10 nM Ab, 10 nM TFPI", "setting": "[4]", "value": 0.099},
      {"measurement": "FXa assay OD, 20 nM Ab, 10 nM TFPI", "setting": "[4]", "value": 0.431}
    ]},
    {"binder": "B10", "values": [
      {"measurement": "FXa assay % of FXa alone, 2.5 nM Ab, 10 nM TFPI", "setting": "[1]", "value": 3.4, "unit": "%"},
      {"measurement": "FXa assay % of FXa alone, 5 nM Ab, 10 nM TFPI", "setting": "[1]", "value": 3.5, "unit": "%"},
      {"measurement": "FXa assay % of FXa alone, 10 nM Ab, 10 nM TFPI", "setting": "[1]", "value": 3.3, "unit": "%"},
      {"measurement": "FXa assay % of FXa alone, 20 nM Ab, 10 nM TFPI", "setting": "[1]", "value": 2.5, "unit": "%"}
    ]}
  ]
}
